According to publication PMC6363164 (2019):

Target: Rab7-RILP complex (human, UniProt P51149 2-195; Q96NA2 242-320)
Assay: ITC

Sequence of Rab7-RILP complex (P51149 2-195 Q67L, chain 1 of 2): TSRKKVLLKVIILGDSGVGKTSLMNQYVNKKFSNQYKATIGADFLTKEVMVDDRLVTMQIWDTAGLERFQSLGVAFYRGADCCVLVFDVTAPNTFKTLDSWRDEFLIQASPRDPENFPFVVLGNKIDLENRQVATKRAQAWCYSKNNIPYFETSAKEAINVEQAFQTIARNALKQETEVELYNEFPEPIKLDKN
Sequence of Rab7-RILP complex (Q96NA2 242-320, chain 2 of 2): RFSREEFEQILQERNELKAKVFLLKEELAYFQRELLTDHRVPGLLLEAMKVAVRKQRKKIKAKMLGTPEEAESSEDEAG

Kd: 4.13 µM
B1: ORP1 ANK (5-233) (protein)
chain: AEQQLLHHARNGNAEEVRQLLETMARNEVIADINCKGRSKSNLGWTPLHLACYFGHRQVVQDLLKAGAEVNVLNDMGDTPLHRAAFTGRKELVMLLLEYNADTTIVNGSGQTAKEVTHAEEIRSMLEAVERTQQRKLEELLLAAAREGKTTELTALLNRPNPPDVNCSDQLGNTPLHCAAYRAHKQCALKLLRSGADPNLKNKNDQKPLDLAQGAEMKHILVGNKVIYK
